Assay: yeast display, Sf9 membrane polyspecificity reagent, FACS + sequencing; frameworks hold sequencing errors
Summary of the method: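 Genes from sorted yeast were amplified by colony PCR, read by MiSeq 2 × 250 sequencing and filtered on CDR length. These cells carried a synthetic nanobody library in Saccharomyces cerevisiae BJ5465 and were sorted by FACS into low and high (top ~1%) gates on anti-HA and streptavidin fluorescence. Polyreactivity is labelled according to the gate of origin.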

Q: Which “polyreactivity (PSR sort gate)” value does the source give for “QVQLVESGGGLVQAGGSLRLSCAASGSILNNYAMGWYRQAPGKERELVAAISSSGGTNYADSVKGRFTISRDNAKNTVYLPMNSLKPVDTAVYYCNADVLDGGYDYWGQGTQVTVSS” here?
A: low polyreactivity

Q: Which “polyreactivity (PSR sort gate)” value does the source give for “QVQLVESGGGLVQAGGSLRLSCAASGNTFPAYAMGWYRQAPGKERELVATISWSTGSTNYADSVKGRFTISRDIAKNTVYLQMNSLKPEDTAVYYCNKELYDFKDRNLKAFLLRIFDSWGQGTQVTVSS” here?
A: low polyreactivity

Q: Which “polyreactivity (PSR sort gate)” value does the source give for “QVQLVESGGGLVQAGGSLRLSCAASGSTFPVNAMGWYRQAPGKERELVATIRWTGGGTYYADSVKGRFTISRDNAKNTVYLQMNSLKPEDTAVYYCAADPPWEWSDYGYDYWGQGTQVTVSS” here?
A: low polyreactivity

Q: With “QVQLVESGGGLVQAGGSLRLSCAASGRIFYQYAMGWYRQAPGKERELVAAIRYRDDGTYYADSVKGRFTISRDNAKNTVYLQMNSLKPEDTAVYYCAAKQWGRYGFWGQGTQVTVSS” as the sequence, how does the “polyreactivity (PSR sort gate)” value read?
A: high polyreactivity

Q: For “QVQLVESGGGLVQAGGSLRYSCAASGSIFYWYAMGWDRQAPGKERELVAGITYSGGNTYYADSVKGRFTISRDNAKNTVYLQMNSLKPEDTAVYDCAATRGYWRKWRMDYWGQGTQVTVSS”, which “polyreactivity (PSR sort gate)” value is on record?
A: high polyreactivity

Q: For “QVQLVESGGGLVQAGGSLRLSCAASGRIFRYYAMGWYRQAAGKERELVAAISYSGGRTYYADSVKGRFTISRDNAKNTVYVQMNSLKPEDTAVYYCASVWHSQSSYVPFDSWGQGTQVTVSS”, which “polyreactivity (PSR sort gate)” value is on record?
A: high polyreactivity

Q: With “QDQLVESGVGFVQAGVSLRLSSAASGSIFYLNAMGWYRQAPGKERELVAAITNGGSTYADSVKGRFTISRDNAKNTVYLPMNSLKPEDPAVYYCATRSWELGDYLGQGTQVTVSS” as the sequence, how does the “polyreactivity (PSR sort gate)” value read?
A: low polyreactivity

Q: With “QVQREESGGGLVQAGGSLRLSCAASGSTFDAYAMGWYRQAPGKERELVAAITWSGGSTYYADSVKGRFTISRDNAKNTVYLQMNSLKPEATAVYYCAADKLGELDYWGQGTQVTVSS” as the sequence, how does the “polyreactivity (PSR sort gate)” value read?
A: low polyreactivity

Q: For “QVQLVESGGGLVQAGGSLRLSCAASGRIFSWYAMGWYRQAPGKERELVAAISWNGGSTYYADSVKGRFTISRDNAKNTVYLQMNSLKPEDTAVYYCAATYRHYGYDSWGQGTQVTVSS”, which “polyreactivity (PSR sort gate)” value is on record?
A: high polyreactivity

Q: For “QVQLVESGGGLVQAGGSLRLSCAASGSIFWSNAMGWYRQSPGKEREFVASISSSGSTNYADSVKGRFTISRDNAKNTVYLQMNSLKPEDTAVYYCNADGLYSYWYFWSSAYDYWGQGTQVTVSS”, which “polyreactivity (PSR sort gate)” value is on record?
A: low polyreactivity

Q: For “QVQRVESGGGLVQAGGSLRLSCAASGNIFGYAMGWYRQAPGKERELVAAISRGGGTYYADSVKGRFTISRDNAKNTVYLQMNSLKPEDTADYYCAARLVKGYSRMNYWGQGTQVTVSS”, which “polyreactivity (PSR sort gate)” value is on record?
A: high polyreactivity

Q: With “QVQLVESGGGLVQAGGSLRLSCAASGSTFVYYVMGWYRQAPGKERELVAAISWSDDSTYYADSVKGRFTISRDNAKNTVYLQMNSLKAEDTAVYYCAATGYPFYTSGDIEYYYWGQGTQVTVSS” as the sequence, how does the “polyreactivity (PSR sort gate)” value read?
A: low polyreactivity

Q: With “QVQLVESGGGLVQAGGSLRLICAASGATFVDYTMGWYRQAPGKERELVAAITVSAGSTYYADSVKGRFTISRDNAKNTVYLQMNSLKPEDTAVYYCAKATSSFYHYRYDYWGQGTQVTVSS” as the sequence, how does the “polyreactivity (PSR sort gate)” value read?
A: low polyreactivity

Q: For “QVQLVESGGGLVQAGGSLRLSCAASGRTFRYYAMGWYRQAPGKERELVAAISSRGNTYYADSVKGRFTISRDNAKNTVYLQMNSLKPEDTAVYYCAAYVYRVQYDFDYWGQGTQVTVSS”, which “polyreactivity (PSR sort gate)” value is on record?
A: high polyreactivity

Q: For “QVQLVESGGGLVQAGGSLRLSCAASGSTFGYYAMGWYRQAPGKERELVASITSDGSTNYADSVKGRFTISRDNAKNTVYLQMNSLKPEDSSVYYCAAYVWRYWHEYDYWGQGTQVTVSS”, which “polyreactivity (PSR sort gate)” value is on record?
A: low polyreactivity

Q: Which “polyreactivity (PSR sort gate)” value does the source give for “QVQLVESGGGLVQAGGSLRLSCAASGSIITPYTMGWYRQAPGKERELVAAITGSAGSTYYADSVKGRFTISRDNAKNTVYLQMNSLKPEDTAVYYCAAAVWGVYQWYYYWGQGTQVTVSS” here?
A: high polyreactivity

Q: With “QVQLVESGGGLVQAGGSLRLSCAASGLTFRRYDMGWNRQAPGKEREFVAAITWSTGSTYYADSVKGRFTISRDNAKNTDYLPMNSLKPEDTAVYYCAARSGYFYRYYKYDYWGQGTQVTVSS” as the sequence, how does the “polyreactivity (PSR sort gate)” value read?
A: high polyreactivity

Q: For “QVQLVESGGGLVQAGGSLRLSCAASGRIFSDYAMGWYRQAPGKERELVAAISRSGTRTYYADSVKGRFTISRDNAKNTVYLQMNSLKPEDTAVYSCAAKTPYGRAGQEEDYCGQGTQVTVSS”, which “polyreactivity (PSR sort gate)” value is on record?
A: high polyreactivity

Q: For “QVQLVESGGGLVQAGGSLRLSCAASGRIFPGNAMGWYRQAPGKEREFVAAINTRGGITYYADSVKGRFTISRDNAKNTVYLQMNSLKPEDTAVYYCNKRWSIRSGYPYTYGIYDYWGQGTQVTVSS”, which “polyreactivity (PSR sort gate)” value is on record?
A: low polyreactivity

Q: For “QVQLVESGGGLVQAGGSLRLSCAASGRIFVYNAMGWYIQAPGKERELVAAISWSTGRTNYADSVKGRFTISRDNAKNTVYLQMNSLKPDDTAVYYCAAEWAWEYYSFWSEYDYWGQGTQVTVSS”, which “polyreactivity (PSR sort gate)” value is on record?
A: high polyreactivity

Q: With “QVQLVESGGGLVQAGGSLPLSCAASGRIFSYYAMGRYRQAPGKERELVASISRSGGSTYYADSVKGRFTISRDNAKNTVYLQMISLKPEDTAVYYCAAYKYVRSYPYDYWGQGTQVTVSS” as the sequence, how does the “polyreactivity (PSR sort gate)” value read?
A: low polyreactivity

Q: Which “polyreactivity (PSR sort gate)” value does the source give for “QVQLVESGGGLVQAGGSLRLSCAASGSIFFEYAMGWSRQAPGKERELVASINRGGGSTYYSDSVKGRFTISRDNAKNTVYLQMNSLKPEDTAVSYCAAQWKYRQSYLDYYSGQGTQVTVSS” here?
A: low polyreactivity

Q: With “QVQLVESGGGLVQARGSLRLSCAASGSIFRYNAMGWYRQAPGKERELVAAITSAGGSTYYADSVKGRFTISRDKAKNTVYLQMNSLKPEDTAVYYCAVRYYVYFPWPRVTERMYYWGQGTQVTVSS” as the sequence, how does the “polyreactivity (PSR sort gate)” value read?
A: high polyreactivity

Q: For “QVQLVDSGRGLVQAGGSLRLSCAASGFTVGVNAMGWDRQAPGKERELVAAITRSGGTTYYADSVQGRFTISRDKAKNTVYLQMNSLKPEDTAVYYCNRRARSYADDYWGQGTQVTVSS”, which “polyreactivity (PSR sort gate)” value is on record?
A: high polyreactivity

Q: With “QVQLVESGGGLVQAGGSLRLSCAASGRTFVRNAMGWYRQAPGKERELVAAISSSGGSTYYADSVKGRFTISRDNAKNTVYLQMNSLKPEDTAVYYCAAFRIGREYWGQGTQVTVSS” as the sequence, how does the “polyreactivity (PSR sort gate)” value read?
A: high polyreactivity

Q: Which “polyreactivity (PSR sort gate)” value does the source give for “QVQLVESGGGLVQAGGSLRLSCAASGSNYGFYAMGWYRKAPGKERELVAVISSDGSTNYADSVKGRFTISRDNAKNTVYLQMNSLKPEDTAVYYCAADWSITYGDGGYWGQGTQVTVSS” here?
A: low polyreactivity

Q: With “QVQLVESGGGLVQAGGRLRLSSDASGLTFPTNAMGRYRQAHGKETEFVAAITSRGGTTYYADSVKGRFTISRDNAKNTVYLQMNSLKPEDTAVYYCAALSVTIYQSYRYGYWGQGTQVTVSS” as the sequence, how does the “polyreactivity (PSR sort gate)” value read?
A: low polyreactivity

Q: For “QVQLVESGGGLVQAGGILRLSCAASGRTFSRYAMGWYRQAPGKERELVAAITWDGGSTYYADSVKGRFTISRDNAKNSVYLLMNSLKPEDTAVYYFAARYIRNRMNYWGQGTQVTVSS”, which “polyreactivity (PSR sort gate)” value is on record?
A: high polyreactivity

Q: With “QVQLVESGGGLVQAGGSLRLSCAASGLNLAQYVMGWYRQAPGKERELVAAITWRGGGTYYADSVKGRFTISRDNAKYTVYLQMNSLKPEDTAVYYCNAVLYDGYVYNPGSTDDVDYWGQGTLVTVSS” as the sequence, how does the “polyreactivity (PSR sort gate)” value read?
A: high polyreactivity

Q: For “QVQLVESGGGLVQAGGSLRLSCAASGSIFDSYAMGWYRQAPGKERELVADITSDGSTHYADSVKGRFTISRDNAKNSVYLQMNSLKPEDTAVYYCAAALPLVDFYDYWGQGTQVTVSS”, which “polyreactivity (PSR sort gate)” value is on record?
A: low polyreactivity

Q: With “QVQLVESGGGLVQAGGSLRLSCAASGRTFYSYAMGWYRQAPGKERELVAAISRSGNTYYADSVKGRFTISRDNAKNTVYLQMNSLKPEDTAVYYCAAYYWWGYPENDYWGQGTQVTVSS” as the sequence, how does the “polyreactivity (PSR sort gate)” value read?
A: high polyreactivity

Q: For “QVQLVESGGGLVQAGGSLRLSCAASGRTFSDYVMGWYRQAPGKERELVAAINIGGGSTYYADSVKGRFTISRDNAKNTVYLQMNSLKPEDTAVYYCAAESAGSYLDYYWAYGYWGQGTQVTVSS”, which “polyreactivity (PSR sort gate)” value is on record?
A: low polyreactivity

Source: the nanobody polyreactivity screen of Harvey et al. (2022)
